# Assay results: the DeepSol protein solubility set
# Assay: soluble on expression in E. coli; label from the status in PepcDB or PDB records
row,Sequence,soluble on expression in E. coli
1,MGSDKIHHHHHHMAKLKISKKISTALINSLGAGVVPRVGVEYIAVGREKELKSLLQNLDDIAEGVAAFRFIIGNYGSGKSFLLQLIRNRAMEQGFVVADADLSSERRLAGSNNEGVATYRELMSHLATKTRPDGGALVSILEGWINKIQQEVVKETEMRPNDDGFDDQVESKIREVVQYIEGLVHGFDFGSVIIAYWRGYRMDDDNLKNAAMRWLRGEFTTKVEAKAALGVRVIIDDDSWYDYIKLFAKFVAEIGYKGLLILVDEAVHLYQISTTVTREKNYNRLLAMFNDTMQCKAEHLGIVVGGTTKFLEDPKRGLFADQAWQRRTKESRFVAQANVQENSGPVIRLNPLSEAEILTLLQRLAEIHALNFGYEQTLTNRELKEFVQEIINRLGAEALLTPGEIVRDFMSVLNILHQNPGIVFAELIHGSKFKPTAMGKNPNVDENGAAEFSL,not soluble
2,MGSSHHHHHHGGTGENLYFQGGSGAGIKSRERLRRDQERQLRQLPFLYHRVKDLQDTCERLEQELASSHQRVAAFQQEAFALRSLIKFTEHPELAAAAKNDAAKHVLQEEVRELRNQVQRLRREKELSLRQSEEACEAAEFYKELCDQLYEESLRAAEAIAVGGATSGLESVVTPLPNRNVDDMTLAVSTAPSTATSMEAQMRQLHGALELERARSSALVETVSLLHTAMKATTAAGTKRSTPAPDSSAGWAERRREDDTSGICASRSRVFADDTRKSRTRLKRLAAVLRVENRLLTQRVTEVVARNMRCVKEISALKLANKRLELNQRQES,soluble
3,MKTKDQIDNIVKETYRHIDFSGVILVKEKKGIVYEEVFGYANRNECINNTLQTRFGIASGCKIFTAIGICQLVENGVITFQTKLKECLSVNFPNFNEDITIHHLLTHSSGIPDYFDESIMDNFEDLWKQTPMYLLKSLKDFLPLFQNRDMMYAPGSKFHYNNAGFIILGLIIEEQTGLTFTEYIEKNIFNPIGMNHSGYFSLDRLPRQTALGYIKDEISQTWRTNAYSIPIKGGSDGGAFITASDMLKFWEALFNYEIISQEYTKILLTPHIQVNNNQSYGYGIWIETRENKIFKYHVMGYDPGVSFRSAVYPDLGITLVIPSNKGAGAEKLMIEIEGSF,not soluble
4,MIVDLPDTTTTAVNKKLDELREKIGAVAMGRVLTLIIAPDSEAMLEESIEAANDASHEHPSRIIVTMRGDPYADRPRLDAQLRVGADAGAGEFVVLRLSGPLAGHADSVVIPFLLPDIPVVAWWPDIAPAVPAQDALGKLAIRRITDATNAIDPLSAIKSRLAGYGAGDTDLAWSRITYWRALLTSAVDQPRHEPIESALVSGLKTEPALDVLAGWLASRIEGPVRRAVGELKVELVRNSETIVLSRPQEGITATLTRTGKPDALVPLARRVTGECLAEDLRRLDPDEIYCAALEGIKKVQYR,not soluble
5,MSLGASATRILFVDDEPSILKSLRRVTRSMSAECIFVDNGRDALALMRENPFDVVVSDMRMPEMDGATLLAEIARDYPETMRLVLSGFAEDDLILAAINEGRVWGFIHKPWDDHQLIVTLQHAVTTQQMMVERALLRRTVERYTSELKESFVSFVGGSLPMQAVYNQIERAAPSNASVFITGPSGTGKELAAEAIHKLSERKNGPFIALNCAAIPTELMESEIFGHVKGAFTGAVSARDGAATQAHNGTLFLDEIGEMDISLQAKLLRFIQTGSFQKVGGTKQENVNIRFVCATNRAPLDAIANGTLREDLYYRLNVVALHLPPLNQRENDPILLANTFLQRFAAQERKELVGFSSEASSLILGYDWPGNVRQLQNCIHNVVVMSAGPLITPNDIAIALQLDPQQVATEGHHHHHH,not soluble
6,MPMVRVATNLPNEKVPVDFEIRLTDLLARSMGKPRERIAVEIAAGARLVHGATHDPVTVISIKSIGAVSAEDNIRNTAAITEFCGKELGLPKDKVVITFHDLPPATVGFNGTTVAEANKK,not soluble
7,MGSDKIHHHHHHMLFSVVDDRSGVAYQEYHCVYGEDAETALRFLFNSMAPKADPSFPFQGRPKLIYLDNGPVAKRRVFQSVMRALGIEWQTHIPASKDGTRTTARSKGKVERPFRTVKEAHETLYHFHKPETEAQANEWLLRYLVRTYNQQTHRAEPLSRIEDWITHVPTEGIREMCSWDQFCRFAREPERRKVGPDARITTDGTAYELEPEMAGDYVVLLWGLFDDELHAEFDGERFGPHYPVSGPIPQHRYRAFKRSKADERSARIRSLADQLGLPIAALSGEDVRLEPGSADSTLPIQPFVFEPQESRIAAKLAIAEELAMPLAKLSMDDRAFIDQVLSETLATD,not soluble
8,GFTVALIQGDGIGPEIVSKSKRILAKINELYSLPIEYIEVEAGDRALARYGEALPKDSLKIIDKADIILKGPVGESAADVVVKLRQIYDMYANIRPAKSIPGIDTKYGNVDILIVRENTEDLYKGFEHIVSDGVAVGMKIITRFASERIAKVGLNFALRRRKKVTCVHKANVMRITDGLFAEACRSVLKGKVEYSEMYVDAAAANLVRNPQMFDVIVTENVYGDILSDEASQIAGSLGIAPSANIGDKKALFEPVHGAAFDIAGKNIGNPTAFLLSVSMMYERMYELSNDDRYIKASRALENAIYLVYKERKALTPDVGGNATTDDLINEIYNKLG,soluble
9,MATLTAKNLAKAYKGRRVVEDVSLTVNSGEIVGLLGPNGAGKTTTFYMVVGIVPRDAGNIIIDDDDISLLPLHARARRGIGYLPQEASIFRRLSVYDNLMAVLQIRDDLSAEQREDRANELMEEFHIEHLRDSMGQSLSGGERRRVEIARALAANPKFILLDEPFAGVDPISVIDIKRIIEHLRDSGLGVLITDHNVRETLAVCERAYIVSQGHLIAHGTPTEILQDEHVKRVYLGEDFRL,soluble
10,MNSNKELMQRRSQAIPRGVGQIHPIFADRAENCRVWDVEGREYLDFAGGIAVLNTGHLHPKVVAAVEAQLKKLSHTCFQVLAYEPYLELCEIMNQKVPGDFAKKTLLVTTGSEAVENAVKIARAATKRSGTIAFSGAYHGRTHYTLALTGKVNPYSAGMGLMPGHVYRALYPCPLHGISEDDAIASIHRIFKNDAAPEDIAAIVIEPVQGEGGFYASSPAFMQRLRALCDEHGIMLIADEAQSGAGRTGTLFAMEQMGVAPDLTTFAKSIAGGFPLAGVTGRAEVMDAVAPGGLGGTYAGNPIACVAALEVLKVFEQENLLQKANDLGQKLKDGLLAIAEKHPEIGDVRGLGAMIAIELFEDGDHNKPDAKLTAEIVARARDKGLILLSCGPYYNVLRILVPLTIEDAQIRQGLEIISQCFDEAKQ,soluble
11,MKIGIIGATGRAGSRILEEAKNRGHEVTAIVRNAGKITQTHKDINILQKDIFDLTLSDLSDQNVVVDAYGISPDEAEKHVTSLDHLISVLNGTVSPRLLVVGGAASLQIDEDGNTLLESKGLREAPYYPTARAQAKQLEHLKSHQAEFSWTYISPSAMFEPGERTGDYQIGKDHLLFGSDGNSFISMEDYAIAVLDEIERPNHLNEHFTVAGKLEHHHHHH,soluble
12,MLNKTNTWTPSLFRDYKNAEHDACGIVSVMEKRKIPTKENIDLCIQSLVKMNHRAGFINGEGDGIGIHIDVPKALWNEKLKSSGYNPTIVDHPHFIVGHFFLNKNENIVDLKNHIRTQLNNENFAILFESDNVINSDALGPLGKQEEPLFWQVALIAENEVVNIEQTLFSVTIKIEENEAIHVASLSRDHVVYKVLGAGDTLVAYYNDLQHPLIASTMTLGHNRYSTNTLSNFFRVQPFSILGHNGEINTIAKLRDQAEMIHVPLTAGGSDSQDLNRTLETLLVQYGYSLFEAMDILFPPIINEIKLYETHLQDLYTYIREAWGHFAQGPAGIISRYKDEAVFSVDSLGLRPVWKVEIESSYIFSSEPGVVSPTEYVAEPKPLAPGEKVGLKWNEQDELVLYEHDDYQTQVYNRFKKKVDVTNYHLHLSIPKTKEIPDACDSMQVETKQYVAFGWDREHIQLLEQMATKGVEPIRSLGHDSPLAALDTDRRNIADFIKESVAVVTNPAIDRDREVEHFSTRTILGERPSLLSDAKKPFVVEMLSPIILEGSVAQSIAQELHTITYEQLIELFNTHSSIATISATFSQAETLQCALSRISSEAITAVNDGASLLLIDDADAHLNERLWIDPHLVTAKVHQVLSENKLRRNCSLVIRSGALRSLHDIVTLHGLGADSINPYLLFATVNDGTKTPITNLYNALNKGLEKVISTIGIHELRGYGRLYSSIGLHEEIANILQITNFLGSNDLAFSLESLAEDAQMRADDYNDPKVRIRKSFHIFPRIWKAIGDVAKGNSYDDYRDKLSELEENNPIAIRHLIQTKETKHVIPTEEVSISIQNHDLPFIISSMSFGSQNEIAFRAYAEAADQLNMISLNGEGGEIKDMIGKYPHTRGQQVASGRFGVNAELLNSSNLIEIKIGQGAKPGEGGHLPGSKVTAKIAEARNATIGSDLISPSNNHDIYSIEDLAQMITEIKTANQLAKVAVKVPVVPNIGTIAVGIAKAGADFINISGFDGGTGAARIHALQHVGLPVEIGVKAAHNALLEANMRHNVEIWADGGIRSVNDALKIMLLGANRIGFGTLSMIAIGCTTCRGCHLDTCHVGIATQIESEAQAKEHGLRRFVPRELESAVAGLLHLFTTFGEELKRLTGNLGYTNLQEIVGRSDLLEQVRGKNLLNLCNLLQTIEHPSVIKTEHVLEKQFEPIHSPHSKELVGVGVEQRVMGGLESCYRVRSKLYEDTKLEPLTLKYTNGSIPGNGLGAYNSENLFIHVNGGAQDGIGKTSFGGGIYITKAKGKDGLYYNGSVGKGFGYGAQKGALYVQGNADARAGIRLSGADMIIGGRMTKPLREKEQGNIGAYSNIKGFAFEYMTNGRALVLGDPGPWICAGMTGGVVYLRHDSSLGLTEQALKRRIAKGANVTLQPISKNGVRDVNELLLDYIRVLNEHEQYEEVALLTPLLDDMQQQFFEIIPKKEQADPSISTE,not soluble
13,MVKVTIIIPTYNPREHLIDTLLSVRTQNFTNIEVLIVDDGSTVDVSTLIKPYITADNIRCIRRKNGGTAAARNTGITNSTGEYIAFLDHDDIWLPDKVALQVEALDRNLSCGLTYCNFQILDEQTGSLINPHRQGEGGCMFEKFLYRNYITTASQIMVRRSCFDQLGLFDESLPIVDDYDFYLRLSRCYDIHYDPRVLTHWRSHQFNTSKNYEKTQLGRIKVKETALNRWALSDNQKKILFKGLRRDYYELAYYYLNSEKYSDARNYFRKAVPYRPVKSIVYYLSTCVPGLSYLNMKALKNDFLKLEHHHHHH,not soluble
14,MKRARSANIPGAILHSLAELQDGLNAMIDPSWRAVRSLDNWALAITMESTELLDSYPWKWWKNLNATPDLANVRIELVDIFHFSLSGAMQMRSTPDDEIPAASLKPLKEVMTTFLPAKECTSDPYGFVFFPLTDTQNAIASFRNIIQLANAYRFDVIIECIIYAAEDLGFNLVAYYIAKHTLNCIRQLSGYKDGSYVKVNNGVEDNSLLHNCIKDVSLDEVLDADKYVQAWNSIMANVYEAFQIKESDRKDAERWFALAKENRLAIKA,soluble
15,MEYGDRHITVVDEHGNEQLCEILFTFESDDFGKSYVFYYPVGVEAEDENGETEVHVSAFIPGDENKEGELLPIETEEEWDMIEEVWNTFCAEQEEEDDE,not soluble
16,MGHHHHHHSHMLSHNTMMKQRKQQATAIMKEVHGNDVDGMDLGKKVSIPRDIMLEELSHLSNRGARLFKMRQRRSDKYTFENFQYQSRAQINHSIAMQNGKVDGSNLEGGSQQAPLTPPNTPDPRSPPNPDNIAPGYSGPLKEIPPEKFNTTAVPKYYQSPWEQAISNDPELLEALYPKLFKPEGKAELPDYRSFTRVATPFGGFEKASRMVKFKVPDFELLLLTDPRFMSFVNPLSGRRSFNRTPKGWISENIPIVITTEPTDDTTVPESEDL,not soluble
17,MLDVEVEEKAGPKGKHNKDRTVYSYGTEKTSVVLDGRKVKIERPRLCVYKIRKLTLKDSNSFSRRTR,not soluble
18,MNTHHHIVISIGSNYAAETNIPAAMRLLRDSYPTIRFSKPIENAPIDFPYPSGLFTNLTAHFYSSENREEVGRKLKGIELQLGRTYTKPFDGRVAIDLDLIVWNNTILKNVDYSRPYIQSGLQELRINIQTQLNMTKESRSETFFHNKPNNWNCAQAVQKGFQDLTGMTDEAIEEEYRSKGGGRAEGGLCGALYSANRILESKGLQPVSQEFQAHAGGITCRELKGELKFPCNNCVRLAEELVEQRLSESQTID,not soluble
